Data taken from US20040180389A1.

Target: murine GM-CSF receptor (on FDC-P1 cells) (murine) (UniProt Q00941)
Test: cell-based or functional assay

UniProt Q00941, sequence (Q00941 30-388, chain 1 of 2): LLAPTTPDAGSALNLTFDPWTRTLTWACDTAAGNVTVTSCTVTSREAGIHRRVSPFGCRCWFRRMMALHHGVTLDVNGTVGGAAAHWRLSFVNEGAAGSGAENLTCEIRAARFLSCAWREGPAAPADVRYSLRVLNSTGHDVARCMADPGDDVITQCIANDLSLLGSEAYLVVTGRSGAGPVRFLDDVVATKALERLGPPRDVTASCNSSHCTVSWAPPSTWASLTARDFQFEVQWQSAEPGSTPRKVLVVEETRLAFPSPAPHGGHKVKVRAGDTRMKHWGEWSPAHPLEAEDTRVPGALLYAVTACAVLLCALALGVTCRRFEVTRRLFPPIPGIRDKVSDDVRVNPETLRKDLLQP
UniProt Q00941, sequence (P26955 23-896, chain 2 of 2, further chain): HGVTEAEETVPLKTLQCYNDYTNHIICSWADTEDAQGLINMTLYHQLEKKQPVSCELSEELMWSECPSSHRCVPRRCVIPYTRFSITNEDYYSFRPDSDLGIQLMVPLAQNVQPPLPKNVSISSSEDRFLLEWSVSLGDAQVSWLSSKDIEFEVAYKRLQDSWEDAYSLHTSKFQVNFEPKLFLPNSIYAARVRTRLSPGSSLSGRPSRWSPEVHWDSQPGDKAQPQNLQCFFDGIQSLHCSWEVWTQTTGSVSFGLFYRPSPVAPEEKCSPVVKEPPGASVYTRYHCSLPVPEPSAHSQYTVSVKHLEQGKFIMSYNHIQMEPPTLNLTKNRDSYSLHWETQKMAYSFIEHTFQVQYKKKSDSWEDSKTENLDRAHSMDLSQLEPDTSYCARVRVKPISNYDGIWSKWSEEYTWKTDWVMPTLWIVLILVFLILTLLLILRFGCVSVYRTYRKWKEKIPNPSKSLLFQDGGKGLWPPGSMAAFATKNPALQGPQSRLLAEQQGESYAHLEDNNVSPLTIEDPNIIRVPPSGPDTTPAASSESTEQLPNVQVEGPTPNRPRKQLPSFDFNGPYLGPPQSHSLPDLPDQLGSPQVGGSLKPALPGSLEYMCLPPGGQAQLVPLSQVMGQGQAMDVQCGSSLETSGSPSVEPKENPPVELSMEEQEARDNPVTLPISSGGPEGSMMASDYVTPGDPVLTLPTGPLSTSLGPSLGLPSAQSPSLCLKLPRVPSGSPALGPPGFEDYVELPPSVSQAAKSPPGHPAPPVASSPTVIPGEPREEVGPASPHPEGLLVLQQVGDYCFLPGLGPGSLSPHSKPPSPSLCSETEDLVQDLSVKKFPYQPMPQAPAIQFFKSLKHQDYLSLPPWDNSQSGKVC

proliferation of FDC-P1 cells (Biotrak BrdU cell proliferation ELISA), 10 ng GM-CSF equivalent per well: 25%
Substance: GPI-GM-CSF (murine GM-CSF fused to the S. cerevisiae Gas1 GPI modification signal sequence, expressed in yeast clone SC-GM-GPI) (from UniProt P01587 18-141; P22146 474-528) (other; the values are: proliferation increase vs soluble GM-CSF)
